Measurements: the supplement of paper PMC10724198
± gives the standard deviation of the averaged measurements.

What was measured:
Saccharomyces cerevisiae [1] = assay: protein stability index of tFT-peptide fusion (C-terminal peptide) (PSI (0-1 scale)); higher = more stable (slower turnover)
Protocol: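 MPS profiling in S. cerevisiae of the tFT-X12 degron library: putative degron peptides plus stable controls, 12 aa, fused to the C-terminus of a sfGFP-mCherry timer. Cells are FACS-sorted into 8 mCherry/sfGFP bins and deep-sequenced. PSI runs from 0 (unstable) to 1 (stable). Backgrounds are wild type, das1Δ and doa10Δ at 30 °C, and wild type, das1Δ, cdc34-1 and cdc53-1 at 37 °C; 2-3 technical replicates each.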

Saccharomyces cerevisiae [2] = assay: as above; conditions: genetic background: wild type; temperature: 30 C
[3] = genetic background: cdc34-1, temperature: 37 C
[4] = genetic background: cdc53-1, temperature: 37 C
[5] = genetic background: das1 deletion, temperature: 30 C
[6] = genetic background: das1 deletion, temperature: 37 C
[7] = genetic background: doa10 deletion, temperature: 30 C
[8] = genetic background: wild type, temperature: 30 C
[9] = genetic background: wild type, temperature: 37 C
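Also: PSI is a weighted mean of sequencing reads over stability bins, variants kept only with over 10 reads, mCherry proximal and sfGFP distal, peptide attached via GGGS linker.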

Sequence	protein stability index (Saccharomyces cerevisiae [1]; [3])	protein stability index (Saccharomyces cerevisiae [1]; [4])	protein stability index (Saccharomyces cerevisiae [1]; [5])	protein stability index (Saccharomyces cerevisiae [1]; [6])	protein stability index (Saccharomyces cerevisiae [1]; [7])	protein stability index (Saccharomyces cerevisiae [1]; [8])	protein stability index (Saccharomyces cerevisiae [1]; [9])	protein stability index (Saccharomyces cerevisiae [2])
GLFGFASPPPPS	0.678 ± 0.042	0.7583 ± 0.0047	0.677 ± 0.016	0.749 ± 0.0081	0.6784 ± 0.0035	0.71 ± 0.021	0.722 ± 0.011	0.25 ± 0.032
TTATLSFAICAV	0.412 ± 0.01	0.455 ± 0.012	0.315 ± 0.022	0.473 ± 0.0063	0.27 ± 0.0051	0.325 ± 0.022	0.452 ± 0.014	0.4276 ± 0.0029
CFCSFQFVRLWV	0.593 ± 0.0065	0.6165 ± 0.0048	0.49 ± 0.028	0.6443 ± 0.0064	0.455 ± 0.03	0.444 ± 0.011	0.58 ± 0.0096	0.452 ± 0.062
SFCSFVFVTFVL	0.4 ± 0.031	0.4842 ± 0.0023	0.321 ± 0.044	0.508 ± 0.022	0.317 ± 0.016	0.312 ± 0.02	0.52 ± 0.058	0.455 ± 0.033
RGKVVRGLLFCA	0.619 ± 0.058	0.7188 ± 0.0062	0.624 ± 0.031	0.7327 ± 0.0057	0.137 ± 0.012	0.151 ± 0.0035	0.318 ± 0.077	0.3 ± 0.12
LPALPFPIPTFA	0.0567 ± 0.00074	0.0586 ± 0.0097	0.186 ± 0.027	0.201 ± 0.005	0.134 ± 0.0084	0.173 ± 0.031	0.179 ± 0.01	0.243 ± 0.053
VGVVVAIGLVRM	0.508 ± 0.013	0.575 ± 0.032	0.381 ± 0.041	0.546 ± 0.0048	0.3423 ± 0.00054	0.377 ± 0.03	0.512 ± 0.019	0.4849 ± 0.0037
LFLIFFSFLFLC	0.135 ± 0.041	0.0847 ± 0.014	0.206 ± 0.024	0.26132 ± 1.1e-05	0.211 ± 0.0073	0.114 ± 0.04	0.141 ± 0.02	0.166 ± 0.028
FCFLLLSWAFWV	0.155 ± 0.026	0.205 ± 0.0084	0.171 ± 0.03	0.27279 ± 7.6e-05	0.0977 ± 0.011	0.103 ± 0.026	0.1757 ± 0.00047	0.159 ± 0.048
YLGSPLSLMLVA	0.48 ± 0.022	0.491 ± 0.026	0.379 ± 0.031	0.51 ± 0.006	0.332 ± 0.031	0.355 ± 0.022	0.481 ± 0.009	0.475 ± 0.032
AFRSPLLMLLVL	0.336 ± 0.0057	0.381 ± 0.0068	0.32 ± 0.028	0.426 ± 0.01	0.32 ± 0.0039	0.262 ± 0.031	0.354 ± 0.0056	0.3468 ± 0.00084
CHFLLHYVFLLS	0.3792 ± 0.0019	0.456 ± 0.0076	0.306 ± 0.037	0.523 ± 0.0055	0.241 ± 0.0065	0.267 ± 0.024	0.462 ± 0.015	0.417 ± 0.017
WLYPVFKISYCV	0.492 ± 0.0089	0.533 ± 0.024	0.357 ± 0.032	0.5131 ± 0.0049	0.282 ± 0.0049	0.33 ± 0.021	0.464 ± 0.017	0.381 ± 0.014
IFSTQMVRFSLL	0.629 ± 0.052	0.7324 ± 0.0061	0.662 ± 0.0074	0.7692 ± 0.0033	0.261 ± 0.0058	0.272 ± 0.017	0.422 ± 0.018	0.362 ± 0.019
FFLSFRLFSILL	0.304 ± 0.033	0.359 ± 0.021	0.342 ± 0.021	0.413 ± 0.014	0.412 ± 0.027	0.292 ± 0.017	0.368 ± 0.011	0.3114 ± 0.0026
FVLWLIYVDLFF	0.214 ± 0.039	0.234 ± 0.013	0.196 ± 0.048	0.342 ± 0.015	0.181 ± 0.019	0.22 ± 0.033	0.339 ± 0.041	0.287 ± 0.094
FIGVLVYICREG	0.1903 ± 0.0018	0.359 ± 0.084	0.254 ± 0.017	0.44 ± 0.024	0.187 ± 0.0062	0.228 ± 0.037	0.373 ± 0.018	0.329 ± 0.032
LSVRLYRTVFLV	0.359 ± 0.044	0.603 ± 0.016	0.53 ± 0.02	0.6697 ± 0.0046	0.0603 ± 0.012	0.0721 ± 0.0073	0.0864 ± 0.023	0.148 ± 0.02
CHPIPLARLAPT	0.671 ± 0.032	0.745 ± 0.032	0.67 ± 0.046	0.7433 ± 0.0058	0.652 ± 0.026	0.666 ± 0.014	0.697 ± 0.011	0.72 ± 0.013
FYLSSCFLFLRF	0.174 ± 0.052	0.136 ± 0.046	0.311 ± 0.012	0.33618 ± 0.0003	0.62 ± 0.04	0.288 ± 0.017	0.305 ± 0.023	0.355 ± 0.0087

Sequence	protein stability index (Saccharomyces cerevisiae [1]; [3])	protein stability index (Saccharomyces cerevisiae [1]; [4])	protein stability index (Saccharomyces cerevisiae [1]; [5])	protein stability index (Saccharomyces cerevisiae [1]; [6])	protein stability index (Saccharomyces cerevisiae [1]; [7])	protein stability index (Saccharomyces cerevisiae [1]; [8])	protein stability index (Saccharomyces cerevisiae [1]; [9])	protein stability index (Saccharomyces cerevisiae [2])
VDVWRWRGLRVG	0.635 ± 0.029	0.73743 ± 0.00065	0.61 ± 0.013	0.7528 ± 0.00093	0.3592 ± 0.0023	0.414 ± 0.031	0.599 ± 0.0082	0.555 ± 0.11
GGICVVAYWRLA	0.4654 ± 0.0011	0.518 ± 0.006	0.388 ± 0.034	0.564 ± 0.01	0.0948 ± 0.013	0.105 ± 0.021	0.173 ± 0.0065	0.198 ± 0.025
SFFSQAIPILAA	0.0333 ± 0.0079	0.039 ± 0.0039	0.152 ± 0.027	0.115 ± 0.015	0.129 ± 0.0039	0.15 ± 0.021	0.0837 ± 0.023	0.225 ± 0.072
MTLYSFSSALLA	0.413 ± 0.045	0.464 ± 0.013	0.316 ± 0.014	0.461 ± 0.002	0.27 ± 0.038	0.276 ± 0.016	0.423 ± 0.0074	0.3535 ± 0.0027
LSGVLFSLIRFY	0.587 ± 0.06	0.636 ± 0.011	0.517 ± 0.03	0.696 ± 0.008	0.274 ± 0.015	0.287 ± 0.032	0.495 ± 0.015	0.383 ± 0.036
VFLFSLLIVFFP	0.213 ± 0.0089	0.3 ± 0.0087	0.226 ± 0.029	0.385 ± 0.00051	0.1951 ± 0.0019	0.216 ± 0.028	0.3338 ± 0.0025	0.219 ± 0.075
RTMLSNRIKSFI	0.6235 ± 0.0026	0.701 ± 0.038	0.642 ± 0.014	0.723 ± 0.02	0.239 ± 0.0068	0.244 ± 0.021	0.519 ± 0.025	0.415 ± 0.014
FVCWGSLILCGG	0.151 ± 0.0074	0.1833 ± 0.0012	0.19 ± 0.028	0.29 ± 0.0062	0.1516 ± 0.00087	0.181 ± 0.027	0.258 ± 0.0085	0.264 ± 0.012
MLIAISASAARF	0.452 ± 0.037	0.5819 ± 0.0017	0.417 ± 0.027	0.501 ± 0.016	0.45 ± 0.02	0.44 ± 0.034	0.498 ± 0.0095	0.4184 ± 0.00049
FLYSVLLICKFI	0.214 ± 0.029	0.258 ± 0.016	0.224 ± 0.037	0.389 ± 0.013	0.118 ± 0.016	0.0757 ± 0.035	0.0829 ± 0.034	0.135 ± 0.12
DGYLFKGIWFFV	0.645 ± 0.011	0.7326 ± 0.0039	0.617 ± 0.033	0.738 ± 0.036	0.145 ± 0.0041	0.163 ± 0.022	0.349 ± 0.0098	0.189 ± 0.031
VIVQSWEIIRLN	0.553 ± 0.055	0.71 ± 0.0093	0.604 ± 0.022	0.7176 ± 0.0053	0.0878 ± 0.0043	0.105 ± 0.026	0.122 ± 0.0068	0.21 ± 0.018
LCVGFISFCFCL	0.48 ± 0.032	0.4954 ± 0.0039	0.451 ± 0.0075	0.53 ± 0.015	0.434 ± 0.01	0.435 ± 0.014	0.512 ± 0.017	0.47934 ± 0.00045
HPRPRPPPLPPP	0.4633 ± 0.00058	0.546 ± 0.019	0.504 ± 0.006	0.523 ± 0.021	0.544 ± 0.0083	0.487 ± 0.03	0.4943 ± 0.0044	0.508 ± 0.032
NMVSMVVVIFGV	0.248 ± 0.014	0.37 ± 0.1	0.23 ± 0.039	0.437 ± 0.024	0.196 ± 0.021	0.24 ± 0.02	0.386 ± 0.016	0.275 ± 0.015
WLLSFLRFLVLR	0.124 ± 0.015	0.0923 ± 0.027	0.322 ± 0.045	0.308 ± 0.02	0.8 ± 0.014	0.298 ± 0.026	0.32 ± 0.021	0.393 ± 0.029
FMANRYICQKTL	0.522 ± 0.074	0.731 ± 0.018	0.635 ± 0.026	0.727 ± 0.01	0.0893 ± 0.023	0.0967 ± 0.022	0.168 ± 0.017	0.185 ± 0.012
IWRGGSAVPMIC	0.627 ± 0.075	0.686 ± 0.022	0.572 ± 0.025	0.721 ± 0.013	0.167 ± 0.0098	0.195 ± 0.023	0.351 ± 0.02	0.267 ± 0.058
NYFRPWLIFHKC	0.684 ± 0.021	0.749 ± 0.012	0.632 ± 0.05	0.742 ± 0.014	0.2644 ± 0.00051	0.309 ± 0.023	0.547 ± 0.0037	0.38 ± 0.059
